The record followed here is patent US20150203577A1 (Chugai, published 2015).

Assay [1] addresses T1, mouse FcγRIII extracellular domain, C-terminally His-tagged (mouse, UniProt P08508 31-215).
T1 construct: the whole entry is named; also called mFcγRIII; mFcgRIII
T1 chain: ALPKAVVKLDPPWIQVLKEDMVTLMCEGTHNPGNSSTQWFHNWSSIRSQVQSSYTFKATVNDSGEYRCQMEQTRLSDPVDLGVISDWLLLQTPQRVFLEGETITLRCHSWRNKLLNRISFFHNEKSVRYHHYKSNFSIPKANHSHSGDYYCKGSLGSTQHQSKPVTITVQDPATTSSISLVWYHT
As to the kind of experiment: SPR Biacore T200, KD ratio. (In general: SPR reads the build-up and loss of mass on a sensor chip optically.)

Assay [2] addresses T2, mouse FcγRII extracellular domain, C-terminally His-tagged (mouse, UniProt P08101 30-210).
T2 construct: the whole entry is named; also called mFcγRII; mFcgRII
T2 sequence: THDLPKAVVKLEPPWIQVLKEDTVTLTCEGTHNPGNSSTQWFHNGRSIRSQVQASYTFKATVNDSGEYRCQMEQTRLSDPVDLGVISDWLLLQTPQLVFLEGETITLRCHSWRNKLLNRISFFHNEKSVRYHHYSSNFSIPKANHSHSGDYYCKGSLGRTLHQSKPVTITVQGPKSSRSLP
As to the kind of experiment: SPR Biacore T200, KD ratio.

B1: H237-MB478/MRAL-k0 (antibody, mouse IgG1, kappa)
heavy: QVQLQESGPGLVKPSETLSLTCAVSGHSISHDHAWSWVRQPPGEGLEWIGFISYSGITNYNPSLQGRVTISRDNSKNTLYLQMNSLRAEDTAVYYCARSLARTTAMDYWGEGTLVTVSSAKTTPPSVYPLAPGSAAQTNSMVTLGCLVKGYFPEPVTVTWNSGSLSSGVHTFPAVLQSDLYTLSSSVTVPSSTWPSETVTCNVAHPASSTKVDKKIVPRDCGCKPCICEPNEVEDVFIFPPKPKDVLTITLTPKVTCVVVDISKDDPEVQFSWFVDDVEVHTAQTQPREELFNSTFRSVSELPIMHQDWLNGKEFKCRVNSAAFPAPIEKTISKTKGRPKAPQVYTIPPPKEQMAKDKVSLTCMITDFFPEDITVEWQWNGQPAENYKNTQPIMDTDGSYFVYSKLNVQKSNWEAGNTFTCSVLHEGLHNHHTEKSLSHSPGK
light: not shown
notes: copies: 2 + 2
On to B1, for which, in assay [1], the “relative mFcγRIII-binding activity (MB390 = 1)” value stood at 0.39 fold and the “relative mFcγRIII-binding activity (mIgG1 = 1)” value was 4.7 fold. In addition, in assay [2], the “relative mFcγRII-binding activity (MB390 = 1)” value turned out to be 0.49 fold and the “relative mFcγRII-binding activity (mIgG1 = 1)” value is 254 fold.

B2: H237-MB494/MRAL-k0 (antibody, mouse IgG1, kappa)
heavy: QVQLQESGPGLVKPSETLSLTCAVSGHSISHDHAWSWVRQPPGEGLEWIGFISYSGITNYNPSLQGRVTISRDNSKNTLYLQMNSLRAEDTAVYYCARSLARTTAMDYWGEGTLVTVSSAKTTPPSVYPLAPGSAAQTNSMVTLGCLVKGYFPEPVTVTWNSGSLSSGVHTFPAVLQSDLYTLSSSVTVPSSTWPSETVTCNVAHPASSTKVDKKIVPRDCGCKPCICEPNEVEDVFIFPPKPKDVLTITLTPKVTCVVVDISKDDPEVQFSWFVDDVEVHTAQTQPREEQFNLTFRSVSELPIMHQDWLNGKEFKCRVNSAAFPAPIERTISKTKGRPKAPQVYTIPPPKEQMAKDKVSLTCMITDFFPEDITVEWQWNGQPAENYKNTQPIMDTDGSYFVYSKLNVQKSNWEAGNTFTCSVLHEGLHNHHTEKSLSHSPGK
light: not shown
notes: copies: 2 + 2
In the case of B2, in assay [1], the “relative mFcγRIII-binding activity (MB390 = 1)” value turned out to be 4.99 fold and the “relative mFcγRIII-binding activity (mIgG1 = 1)” value turned out to be 59.4 fold. Further, in assay [2], the “relative mFcγRII-binding activity (MB390 = 1)” value is 4.05 fold and the “relative mFcγRII-binding activity (mIgG1 = 1)” value is 2110 fold.

B3: H237-MB479/MRAL-k0 (antibody, mouse IgG1, kappa)
heavy: QVQLQESGPGLVKPSETLSLTCAVSGHSISHDHAWSWVRQPPGEGLEWIGFISYSGITNYNPSLQGRVTISRDNSKNTLYLQMNSLRAEDTAVYYCARSLARTTAMDYWGEGTLVTVSSAKTTPPSVYPLAPGSAAQTNSMVTLGCLVKGYFPEPVTVTWNSGSLSSGVHTFPAVLQSDLYTLSSSVTVPSSTWPSETVTCNVAHPASSTKVDKKIVPRDCGCKPCICEPNEVEDVFIFPPKPKDVLTITLTPKVTCVVVDISKDDPEVQFSWFVDDVEVHTAQTQPREEQFNSTFRSVSELPIMHQDWLNGKEFKCRVNSDAFPAPIEKTISKTKGRPKAPQVYTIPPPKEQMAKDKVSLTCMITDFFPEDITVEWQWNGQPAENYKNTQPIMDTDGSYFVYSKLNVQKSNWEAGNTFTCSVLHEGLHNHHTEKSLSHSPGK
light: not shown
notes: copies: 2 + 2
B3: in assay [1], the “relative mFcγRIII-binding activity (MB390 = 1)” value was 1.16 fold and the “relative mFcγRIII-binding activity (mIgG1 = 1)” value worked out at 13.8 fold. In addition, in assay [2], the “relative mFcγRII-binding activity (MB390 = 1)” value was 1.41 fold and the “relative mFcγRII-binding activity (mIgG1 = 1)” value is 734 fold.

B4: H237-MB495/MRAL-k0 (antibody, mouse IgG1, kappa)
heavy: QVQLQESGPGLVKPSETLSLTCAVSGHSISHDHAWSWVRQPPGEGLEWIGFISYSGITNYNPSLQGRVTISRDNSKNTLYLQMNSLRAEDTAVYYCARSLARTTAMDYWGEGTLVTVSSAKTTPPSVYPLAPGSAAQTNSMVTLGCLVKGYFPEPVTVTWNSGSLSSGVHTFPAVLQSDLYTLSSSVTVPSSTWPSETVTCNVAHPASSTKVDKKIVPRDCGCKPCICEPNEVEDVFIFPPKPKDVLTITLTPKVTCVVVDISKDDPEVQFSWFVDDVEVHTAQTQPREEQFNMTFRSVSELPIMHQDWLNGKEFKCRVDSAAFPAPIEKTISKTKGRPKAPQVYTIPPPKEQMAKDKVSLTCMITDFFPEDITVEWQWNGQPAENYKNTQPIMDTDGSYFVYSKLNVQKSNWEAGNTFTCSVLHEGLHNHHTEKSLSHSPGK
light: not shown
notes: copies: 2 + 2
For the molecule B4, in assay [1], the “relative mFcγRIII-binding activity (MB390 = 1)” value was determined as 1.45 fold and the “relative mFcγRIII-binding activity (mIgG1 = 1)” value was 17.2 fold. Besides, in assay [2], the “relative mFcγRII-binding activity (MB390 = 1)” value was 1.2 fold and the “relative mFcγRII-binding activity (mIgG1 = 1)” value was 623 fold.

B5: H237-MB491/MRAL-k0 (antibody, mouse IgG1, kappa)
heavy: QVQLQESGPGLVKPSETLSLTCAVSGHSISHDHAWSWVRQPPGEGLEWIGFISYSGITNYNPSLQGRVTISRDNSKNTLYLQMNSLRAEDTAVYYCARSLARTTAMDYWGEGTLVTVSSAKTTPPSVYPLAPGSAAQTNSMVTLGCLVKGYFPEPVTVTWNSGSLSSGVHTFPAVLQSDLYTLSSSVTVPSSTWPSETVTCNVAHPASSTKVDKKIVPRDCGCKPCICEPNEVEDVFIFPPKPKDVLTITLTPKVTCVVVDISKDDPEVQFSWFVDDVEVHTAQTQPREEQFNMTFRSVSELPIMHQDWLNGKEFKCRVNSAAFPAPIEKTISKTKGRPKAPQVYTIPPPKEQMAKDKVSLTCMITDFFPEDITVEWQWNGQPAENYKNTQPIMDTDGSYFVYSKLNVQKSNWEAGNTFTCSVLHEGLHNHHTEKSLSHSPGK
light: not shown
notes: copies: 2 + 2
B5: in assay [1], the “relative mFcγRIII-binding activity (MB390 = 1)” value worked out at 1.05 fold and the “relative mFcγRIII-binding activity (mIgG1 = 1)” value was determined as 12.4 fold. For the same molecule, in assay [2], the “relative mFcγRII-binding activity (MB390 = 1)” value was found to be 0.92 fold and the “relative mFcγRII-binding activity (mIgG1 = 1)” value came out at 478 fold.

B6: H237-MB493/MRAL-k0 (antibody, mouse IgG1, kappa)
heavy: QVQLQESGPGLVKPSETLSLTCAVSGHSISHDHAWSWVRQPPGEGLEWIGFISYSGITNYNPSLQGRVTISRDNSKNTLYLQMNSLRAEDTAVYYCARSLARTTAMDYWGEGTLVTVSSAKTTPPSVYPLAPGSAAQTNSMVTLGCLVKGYFPEPVTVTWNSGSLSSGVHTFPAVLQSDLYTLSSSVTVPSSTWPSETVTCNVAHPASSTKVDKKIVPRDCGCKPCICEPNEVEDVFIFPPKPKDVLTITLTPKVTCVVVDISKDDPEVQFSWFVDDVEVHTAQTQPREEQFNLTFRSVSELPIMHQDWLNGKEFKCRVDSAAFPAPIEKTISKTKGRPKAPQVYTIPPPKEQMAKDKVSLTCMITDFFPEDITVEWQWNGQPAENYKNTQPIMDTDGSYFVYSKLNVQKSNWEAGNTFTCSVLHEGLHNHHTEKSLSHSPGK
light: not shown
notes: copies: 2 + 2
For the molecule B6, in assay [1], the “relative mFcγRIII-binding activity (MB390 = 1)” value was found to be 3.77 fold and the “relative mFcγRIII-binding activity (mIgG1 = 1)” value was 44.9 fold. Moreover, in assay [2], the “relative mFcγRII-binding activity (MB390 = 1)” value was found to be 2.73 fold and the “relative mFcγRII-binding activity (mIgG1 = 1)” value was 1420 fold.

B7: H237-MB490/MRAL-k0 (antibody, mouse IgG1, kappa)
heavy: QVQLQESGPGLVKPSETLSLTCAVSGHSISHDHAWSWVRQPPGEGLEWIGFISYSGITNYNPSLQGRVTISRDNSKNTLYLQMNSLRAEDTAVYYCARSLARTTAMDYWGEGTLVTVSSAKTTPPSVYPLAPGSAAQTNSMVTLGCLVKGYFPEPVTVTWNSGSLSSGVHTFPAVLQSDLYTLSSSVTVPSSTWPSETVTCNVAHPASSTKVDKKIVPRDCGCKPCICEPNEVEDVFIFPPKPKDVLTITLTPKVTCVVVDISKDDPEVQFSWFVDDVEVHTAQTQPREEQFNLTFRSVSELPIMHQDWLNGKEFKCRVNSAAFPAPIEKTISKTKGRPKAPQVYTIPPPKEQMAKDKVSLTCMITDFFPEDITVEWQWNGQPAENYKNTQPIMDTDGSYFVYSKLNVQKSNWEAGNTFTCSVLHEGLHNHHTEKSLSHSPGK
light: not shown
notes: copies: 2 + 2
Take B7: in assay [1], the “relative mFcγRIII-binding activity (MB390 = 1)” value was found to be 2.9 fold and the “relative mFcγRIII-binding activity (mIgG1 = 1)” value was found to be 34.6 fold. Besides, in assay [2], the “relative mFcγRII-binding activity (MB390 = 1)” value was determined as 2.16 fold and the “relative mFcγRII-binding activity (mIgG1 = 1)” value amounted to 1130 fold.

B8: H237-MB480/MRAL-k0 (antibody, mouse IgG1, kappa)
heavy: QVQLQESGPGLVKPSETLSLTCAVSGHSISHDHAWSWVRQPPGEGLEWIGFISYSGITNYNPSLQGRVTISRDNSKNTLYLQMNSLRAEDTAVYYCARSLARTTAMDYWGEGTLVTVSSAKTTPPSVYPLAPGSAAQTNSMVTLGCLVKGYFPEPVTVTWNSGSLSSGVHTFPAVLQSDLYTLSSSVTVPSSTWPSETVTCNVAHPASSTKVDKKIVPRDCGCKPCICEPNEVEDVFIFPPKPKDVLTITLTPKVTCVVVDISKDDPEVQFSWFVDDVEVHTAQTQPREEQFNSTFRSVSELPIMHQDWLNGKEFKCRVNSAAFPAPIERTISKTKGRPKAPQVYTIPPPKEQMAKDKVSLTCMITDFFPEDITVEWQWNGQPAENYKNTQPIMDTDGSYFVYSKLNVQKSNWEAGNTFTCSVLHEGLHNHHTEKSLSHSPGK
light: not shown
notes: copies: 2 + 2
With B8, in assay [1], the “relative mFcγRIII-binding activity (MB390 = 1)” value came out at 0.85 fold and the “relative mFcγRIII-binding activity (mIgG1 = 1)” value came out at 10.2 fold. Moreover, in assay [2], the “relative mFcγRII-binding activity (MB390 = 1)” value turned out to be 0.98 fold and the “relative mFcγRII-binding activity (mIgG1 = 1)” value is 511 fold.

B9: H237-MB492/MRAL-k0 (antibody, mouse IgG1, kappa)
heavy: QVQLQESGPGLVKPSETLSLTCAVSGHSISHDHAWSWVRQPPGEGLEWIGFISYSGITNYNPSLQGRVTISRDNSKNTLYLQMNSLRAEDTAVYYCARSLARTTAMDYWGEGTLVTVSSAKTTPPSVYPLAPGSAAQTNSMVTLGCLVKGYFPEPVTVTWNSGSLSSGVHTFPAVLQSDLYTLSSSVTVPSSTWPSETVTCNVAHPASSTKVDKKIVPRDCGCKPCICEPNEVEDVFIFPPKPKDVLTITLTPKVTCVVVDISKDDPEVQFSWFVDDVEVHTAQTQPREEQFNSTFRSVSELPIMHQDWLNGKEFKCRVDSAAFPAPIEKTISKTKGRPKAPQVYTIPPPKEQMAKDKVSLTCMITDFFPEDITVEWQWNGQPAENYKNTQPIMDTDGSYFVYSKLNVQKSNWEAGNTFTCSVLHEGLHNHHTEKSLSHSPGK
light: not shown
notes: copies: 2 + 2
Turning to B9, in assay [1], the “relative mFcγRIII-binding activity (MB390 = 1)” value stood at 0.92 fold and the “relative mFcγRIII-binding activity (mIgG1 = 1)” value was found to be 10.9 fold. For the same molecule, in assay [2], the “relative mFcγRII-binding activity (MB390 = 1)” value was 1.19 fold and the “relative mFcγRII-binding activity (mIgG1 = 1)” value came to 622 fold.
